Reference: paper PMC2744139

Target: Cdc13 full-length (FL) (Saccharomyces cerevisiae, UniProt P32797 1-924)
Assay: fluorescence anisotropy

Chain of Cdc13 full-length (FL) (P32797 whole entry): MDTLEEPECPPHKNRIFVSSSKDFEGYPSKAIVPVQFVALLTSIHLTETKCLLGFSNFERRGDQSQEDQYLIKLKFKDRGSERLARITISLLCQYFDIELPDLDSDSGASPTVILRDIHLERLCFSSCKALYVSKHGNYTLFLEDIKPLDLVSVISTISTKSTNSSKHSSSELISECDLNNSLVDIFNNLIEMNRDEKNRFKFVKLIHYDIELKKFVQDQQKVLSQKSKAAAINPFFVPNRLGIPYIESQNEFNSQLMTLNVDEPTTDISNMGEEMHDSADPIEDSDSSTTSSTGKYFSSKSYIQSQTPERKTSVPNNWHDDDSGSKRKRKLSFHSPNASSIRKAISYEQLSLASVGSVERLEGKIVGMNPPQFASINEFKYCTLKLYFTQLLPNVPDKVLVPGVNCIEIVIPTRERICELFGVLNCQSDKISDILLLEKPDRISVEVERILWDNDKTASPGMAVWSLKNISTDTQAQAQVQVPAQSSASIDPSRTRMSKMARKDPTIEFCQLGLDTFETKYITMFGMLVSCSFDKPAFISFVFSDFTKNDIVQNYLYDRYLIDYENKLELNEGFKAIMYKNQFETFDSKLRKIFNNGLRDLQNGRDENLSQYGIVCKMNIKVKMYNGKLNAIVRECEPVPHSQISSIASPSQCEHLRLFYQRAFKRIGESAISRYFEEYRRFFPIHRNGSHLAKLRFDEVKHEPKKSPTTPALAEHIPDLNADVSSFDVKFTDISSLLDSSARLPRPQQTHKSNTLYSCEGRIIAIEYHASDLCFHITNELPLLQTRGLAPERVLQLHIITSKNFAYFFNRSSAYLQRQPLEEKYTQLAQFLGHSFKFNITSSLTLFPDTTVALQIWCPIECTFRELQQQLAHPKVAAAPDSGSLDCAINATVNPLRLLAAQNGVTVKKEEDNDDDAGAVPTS

B1: 7-base 3'-overhang telomeric DNA (mixed)
DNA: GTGGGTGTGTGTGTGGGGTGGTGTGTGTGG
?: CACCACCCCACACACACACCCAC
binding result: no binding
